According to US20060178504A1:

Target: binding sites on guinea-pig eosinophils (guinea-pig)
Assay: radioligand binding, 0.1 nM 125I-RANTES on 4x10^5 guinea-pig eosinophils, no competitor

BO: 14.4%
Substance: recombinant human RANTES (from UniProt P13501 24-91) (ligand)
